Assay results as given in US20160346402A1.

Target: TPP-2305, hTNFRSF12 amino acids a28-80 (recombinant human TWEAKR protein) (human) (UniProt Q9NP84)
Assay: SPR (Biacore T100), antibody captured, TWEAKR TPP-2305 as analyte, 1:1 model

B1: ITEM-1 (antibody, from another filing, V domains shown)
VH: EVKLEESGGGLVQPGGSMKLSCVASGFSFSNYWMNWVRQSPEKGLEWVAEIRLKSNNYATHYAESVKGRFTISRHDSKSSVYLQMNNLRAEDTGIYYCTRAYADYFDYWGQGTTLTVSS
VL: DIVLTQSPASLVVSLGQRATISCRASQSVSTSTYSYMHWYQQKPGQPPKILIKYASNLESGVPARFSGSGSGTDFTLNIHPVEEEDTATYYCQHSWEIPYTFGGGTKLEIKR
Kd: 2.9 nM
koff: 0.011 s⁻¹
kon: 3.8e+06 M⁻¹ s⁻¹
